A word on the Kd: it is the equilibrium constant for the complex coming apart. The term koff denotes a measure of how fast the partners let go of each other. By kon is commonly meant the rate constant with which the complex forms.

This passage reports Kd, koff and kon results from patent US20030191054A1.

In assay [1] the target is purified recombinant BAG-1 (beginning at residue 116 of SEQ ID NO:2) (human). Nature of the assay: surface plasmon resonance (BIAcore), KD=Kd/Ka. (In general: Surface plasmon resonance follows binding to a sensor surface in real time, without labels.)
Assay [2] addresses purified recombinant BAG-2 (SEQ ID NO:4) (human). In words: surface plasmon resonance (BIAcore), KD=Kd/Ka.
For assay [3], the target named is purified recombinant BAG-3 (SEQ ID NO:6) (human). Nature of the assay: surface plasmon resonance (BIAcore), KD=Kd/Ka.
Assay [4] deals with purified recombinant BAG-1 (beginning at residue 116 of SEQ ID NO:2) (human). In words: surface plasmon resonance (BIAcore), BAG protein immobilized.
For assay [5], the target named is purified recombinant BAG-2 (SEQ ID NO:4) (human). The description is as above.
Assay [6] has as its target purified recombinant BAG-3 (SEQ ID NO:6) (human). The assay is described as above.

As for “Hsc70 in the soluble phase of the BIAcore assay”, the Kd is 1.4 nM in assay [1], 2.4 nM in assay [2] and 7.4 nM in assay [3]. Further, the figures for the koff in assay [4], in assay [5] and in assay [6] were 0.0003 s⁻¹, 0.0005 s⁻¹ and 0.0017 s⁻¹, respectively. In addition, the kon in assay [4] worked out at 210000 M⁻¹ s⁻¹; in assay [5], 210000 M⁻¹ s⁻¹; in assay [6], 240000 M⁻¹ s⁻¹.
